# Source: patent publication US20230183322A1 (PEKING UNIVERSITY, published 2023)
# Changes are numbered by the printed parent chain.
# B1: ABU-328 (antibody, V domains shown)
# VH: EVQLVESGGGLVQPGGSLRLSCAASGFTVSSNYMSWVRQAPGKGLEWVSVIYSGGSTYYADSVKGRFTISRDNSKNTLYLQMNSLRAEDTAVYYCARLSGTGYGGDGGWFDPWGQGTLVTVSS
# VL: QSALTQPASVSGSPGQSITISCTGTSSDVGSYNLVSWYQQHPGKAPKLMIYEVSKRPSGVSNRFSGSKSGNTASLTISGLQAEDEADYYCCSYAGSSLWVFGGGTKLTVL
# B2: ABU-205 (antibody, V domains shown)
# VH: QVQLVQSGAEVKKPGSSVKVSCKASGGTFSSYAISWVRQAPGQGLEWMGRIIPIFGTANYAQKFQGRVTITADESTSTAYMELSSLRSEDTAVYYCARAAYYYDSSGYGWFDPWGQGTLVTVSS
# VL: not shown
# B3: ABU-254 (antibody, V domains shown)
# VH: B2 VH
# VL: not shown
# B4: ABU-145 (antibody, V domains shown)
# VH: QVQLQESGPGLVKPSQTLSVTCTVSGGSINRDGHYWIWIRQHPEKGLEWLGYIYSGRNTFYNPSLRSRLSISADTSKSQFSLNLHSVTAADTAVYYCAKMYSDYDDNYYGLDVWGRGTTVTVSS
# VL: EIVLTQSPGTLSLSPGERATLSCRASHTISSSYLAWYQQKAGQAPRLLIYAASSRATGIPARFSGSGSGTDFTLTISRLEPEDFAVYYCQQFDNSPPWTFGRGTKVEMR
# B5: ABU-181 (antibody, V domains shown)
# VH: QVQLQESGPGLVKPSQTLSLICTVSDDSISSGSYYWSWIRQPAGKGLEWIGRIYAGESTNYNPSLKSRVIISVDTSKKQFSLRLSSVTAADTAVYYCARGAVVTPFGLDSWGQGTLVTVSS
# VL: SYELTQPPSVSVSPGQTARITCSGDALPKQYAYWYQQKTGQAPVLVIYKDSERPSGIPERVSGSSSGTTVTLTISGVQAEDEADYYCQSADSSGTWVFGGGTKLTVL
# B6: ABU-211 (antibody, V domains shown)
# VH: EAQLVESGGGLVQPGRSLTVSCAVSGFTFDDYAMHWVRQAPGKGLEWVSSISWNSEKIAYADSVKGRFTVSRDNAKNSLYLQMTSLRPEDTALYYCARDKGSGSYYSGAYYYYMDVWGKGTTVTVSS
# VL: SDALTQPPSVSVAPGKTAAITCGGDNIGSKNVHWYQQKPGQAPLLVVFDDGDRPSGIPERFSGSNSGNTATLTISRVEAGDEADYYCQVWDGGSDDRGYVFGTGTKVTVL
# B7: ABU-210 (antibody, V domains shown)
# VH: EVQLVESGGGLVQPGRSLRLSCAASGFTFDDYAMHWVRQAPGKGLEWVSGISWNSGTIGYEDSVKGRFIISRDNAKNSLYLQMNSLRAEDTALYYCAKEPLFGETYGMDVWGQGTTVTVSS
# VL: QSALTQPASVSGSPGQSITISCTGTSSDVGGYNYVSWYQHHPGKAPKLMIYEVSNRPSGVSNRFSGSKSANTASLTISGLQTEDEADYYCSSYTSISTVLFGGGTKLTVL
# B8: ABU-323 (antibody, V domains shown)
# VH: EVQLVESGGGLVQPGGSLRLSCAASGFTVSSNYMSWVRQAPGKGLEWVSVIYSGGTTYYADSVKGRFTISRHNSKNTLYLQMNSLRAEDTAVYYCARDWGEYYFDYWGQGTLVTVSS
# VL: not shown
# B9: ABU-394 (antibody, V domains shown)
# VH: B8 VH with V12I, T56S, H72D, D98S, W99Y, E101D
# VL: DIQLTQSPSSLSASVGDRVTITCRASQGISSYLAWYQQKPGKAPKLLIYAASTLQSGVPSRFSGSGSGTDFTLTISSLQPEDFATYYCQQLNSFGPGTKVDIK
# B10: ABU-393 (antibody, V domains shown)
# VH: B8 VH with V12I, T56S, H72D, W99Y, E101D, Y103W, Y106P
# VL: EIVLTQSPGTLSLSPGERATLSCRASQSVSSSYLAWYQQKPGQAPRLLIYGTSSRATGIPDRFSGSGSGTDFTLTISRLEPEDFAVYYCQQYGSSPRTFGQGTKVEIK
# Molecular target: biotin-labeled SARS-COV-2 RBD domain (SARS-CoV-2, UniProt P0DTC2 319-541)
# Experiment: SPR, Biacore T200, biotin-RBD on SA chip, antibody as analyte
row,Binder,Kd
1,B1,< 10 nM
2,B2,< 10 nM
3,B3,< 10 nM
4,B4,< 10 nM
5,B5,< 10 nM
6,B6,< 20 nM
7,B7,< 10 nM
8,B8,< 20 nM
9,B9,< 20 nM
10,B10,< 20 nM
